Molecular target: Synaptotagmin II, P29101
Test: BLI

Sequence of Synaptotagmin II, P29101 (P29101 40-60): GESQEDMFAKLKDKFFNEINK

B1: BoNT/B HC HC, P10844 (protein)
chain: SEILNNIILNLRYKDNNLIDLSGYGAKVEVYDGVELNDKNQFKLTSSANSKIRVTQNQNIIFNSVFLDFSVSFWIRIPKYKNDGIQNYIHNEYTIINCMKNNSGWKISIRGNRIIWTLIDINGKTKSVFFEYNIREDISEYINRWFFVTITNNLNNAKIYINGKLESNTDIKDIREVIANGEIIFKLDGDIDRTQFIWMKYFSIFNTELSQSNIEERYKIQSYSEYLKDFWGNPLMYNKEYYMFNAGNKNSYIKLKKDSPVGEILTRSKYNQNSKYINYRDLYIGEKFIIRRKSNSQSINDDIVRKEDYIYLDFFNLNQEWRVYTYKYFKKEEEKLFLAPISDSDEFYNTIQIKEYDEQPTYSCQLLFKKDEESTDEIGLIGIHRFYESGIVFEEYKDYFCISKWYLKEVKRKPYNLKLGCNWQFIPKDEGWTE
- Kd: 51 µM
